Laboratory results from paper PMC7093598.

Experiments:
[1] = molecular target: titin N2A construct(s), number of N2A-Us elements not stated for the experiment (human) (UniProt Q8WZ42)
[2] = molecular target: titin N2A construct(s), number of N2A-Us elements not stated for the experiment (human) (UniProt Q8WZ42); remark: listed apart in the source

unfolding rate constant α0 of the Ig domains in the absence of applied force with CARP, from the Bell fit of the force clamp data [1]: 0.43 s⁻¹
unfolding rate α of the Ig domains with CARP, AFM force clamp at clamp forces of 100-150 pN; value printed at 100 pN (3.2 s^-1 without CARP) [1]: 2.4 s⁻¹
increase of the Ig domain unfolding force (F unfold, force peaks 1-4) with CARP, AFM force-extension curves at 400 nm/s [2]: 20 pN
Substance: CARP (Cardiac Ankyrin Repeat Protein) 106-319, N-terminally truncated construct corresponding to the titin-binding region (from UniProt Q15327 106-319) (domain or fragment)
